Laboratory results reported in patent US20220251194A1 (Merck Sharp & Dohme, published 2022).

B1: Fab 128 (Fab, V domains shown)
VH: EVQLVQSGAEVKKPGASVKVSCKASGYTFTQYYYYWVRQAPGQGLEWIGGVNPSNGGTNFNEKFKSRVTLTVDTSISTAYMELSRLRSDDTSVYYCTRRDSNYDGGFDYWGQGTTVTVSS
VL: DIVMTQTPLSLSVTPGQPASISCRASKSVSTSGFSYLHWYLQKPGQPPQLLIFLGRHRASGVPDRFSGSGSGTDFTLKISRVEAEDVGVYYCQHSWELPLTFGQGTKLEIKR
B2: Fab 138 (Fab, V domains shown)
VH: EVQLVQSGAEVKKPGASVKVSCKASGYTFTQYYTYWVRQAPGQGLEWIGGIEPNRGGTNFNEKFKSRVTLTVDTSISTAYMELSRLRSDDTAVYYCTRRDSNYDGGFDYWGQGTTVTVSS
VL: DIVMTQTPLSLSVTPGQPASISCRASKSVSTSGFSYLHWYLQKPGQPPQLLIFLASNLESGVPDRFSGSGSGTDFTLKISRVEAEDVGVYYCAQTFELPLTFGQGTKLEIKR
B3: Fab 139 (Fab, V domains shown)
VH: EVQLVQSGAEVKKPGASVKVSCKASGYTFTQYYYYWVRQAPGQGLEWIGGVNPSNGGTNFNEKFKSRVTLTVDTSISTAYMELSRLRSDDTSVYYCTRRDSNYDGGFDYWGQGTTVTVSS
VL: DIVMTQTPLSLSVTPGQPASISCRASKSVSTSGFSYLHWYLQKPGQPPQLLIFLSKFRRSGVPDRFSGSGSGTDFTLKISRVEAEDVGVYYCQHSWELPLTFGQGTKLEIKR
B4: Fab 133 (Fab, V domains shown)
VH: EVQLVQSGAEVKKPGASVKVSCKASGYTFTQYYYYWVRQAPGQGLEWIGGVNPSNGGTNFNEKFKSRVTLTVDTSISTAYMELSRLRSDDTSVYYCTRRDSNYDGGFDYWGQGTTVTVSS
VL: DIVMTQTPLSLSVTPGQPASISCRASKSVSTSGFSYLHWYLQKPGQPPQLLIFLGFYRTSGVPDRFSGSGSGTDFTLKISRVEAEDVGVYYCSQMADLPLTFGQGTKLEIKR
B5: Humanized 08A IgG4 S61N (lot 98AIO) (antibody)
heavy: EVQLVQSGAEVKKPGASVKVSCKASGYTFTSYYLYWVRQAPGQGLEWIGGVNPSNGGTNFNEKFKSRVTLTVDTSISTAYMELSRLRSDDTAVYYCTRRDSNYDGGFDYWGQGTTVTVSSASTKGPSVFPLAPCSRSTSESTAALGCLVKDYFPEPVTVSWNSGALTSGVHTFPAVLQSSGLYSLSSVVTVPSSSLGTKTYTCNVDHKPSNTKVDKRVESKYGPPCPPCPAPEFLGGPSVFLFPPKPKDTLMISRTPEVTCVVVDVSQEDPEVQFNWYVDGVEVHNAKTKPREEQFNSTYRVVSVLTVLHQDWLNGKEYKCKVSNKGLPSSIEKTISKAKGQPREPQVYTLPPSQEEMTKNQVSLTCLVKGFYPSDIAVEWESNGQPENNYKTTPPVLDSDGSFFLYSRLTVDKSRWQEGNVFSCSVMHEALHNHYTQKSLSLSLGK
light: DIVMTQTPLSLSVTPGQPASISCRASKSVSTSGFSYLHWYLQKPGQPPQLLIFLASNLESGVPDRFSGSGSGTDFTLKISRVEAEDVGVYYCQHSWELPLTFGQGTKLEIKRTVAAPSVFIFPPSDEQLKSGTASVVCLLNNFYPREAKVQWKVDNALQSGNSQESVTEQDSKDSTYSLSSTLTLSKADYEKHKVYACEVTHQGLSSPVTKSFNRGEC
notes: IgG4 S228P / kappa; also called Humanized x [PD-1_H] mAb (08A/HuPD1A-11 S61N S228P corrected) IgG4 / Kappa
B6: Humanized 08A IgG4 Fab 098 G56A (antibody, V domains shown)
VH: EVQLVQSGAEVKKPGASVKVSCKASGYTFTSYYLYWVRQAPGQGLEWIGGVNPSNAGTNFSEKFKSRVTLTVDTSISTAYMELSRLRSDDTAVYYCTRRLSHYDGGFDYWGQGTTVTVSS
VL: DIVMTQTPLSLSVTPGQPASISCRASKSVSTSGFSYLHWYLQKPGQPPQLLIFLASNLESGVPDRFSGSGSGTDFTLKISRVEAEDVGVYYCQHSWELPLTFGQGTKLEIKR
notes: IgG4 S228P / kappa; also called 90AVZ
B7: Humanized 08A IgG4 G56A (antibody, V domains shown)
VH: EVQLVQSGAEVKKPGASVKVSCKASGYTFTSYYLYWVRQAPGQGLEWIGGVNPSNAGTNFSEKFKSRVTLTVDTSISTAYMELSRLRSDDTAVYYCTRRDSNYDGGFDYWGQGTTVTVSS
VL: DIVMTQTPLSLSVTPGQPASISCRASKSVSTSGFSYLHWYLQKPGQPPQLLIFLASNLESGVPDRFSGSGSGTDFTLKISRVEAEDVGVYYCQHSWELPLTFGQGTKLEIKR
notes: IgG4 S228P / kappa; also called 89AVZ; Humanized x [PD-1_H] mAb (08A/HuPD1A-11 G56A) IgG4 S228P / Kappa
B8: Humanized 08A IgG4 S61N G56A (antibody, V domains shown)
VH: EVQLVQSGAEVKKPGASVKVSCKASGYTFTSYYLYWVRQAPGQGLEWIGGVNPSNAGTNFNEKFKSRVTLTVDTSISTAYMELSRLRSDDTAVYYCTRRDSNYDGGFDYWGQGTTVTVSS
VL: DIVMTQTPLSLSVTPGQPASISCRASKSVSTSGFSYLHWYLQKPGQPPQLLIFLASNLESGVPDRFSGSGSGTDFTLKISRVEAEDVGVYYCQHSWELPLTFGQGTKLEIKR
notes: IgG4 S228P / kappa; also called 51AQK; Humanized x [PD-1_H] mAb (08A/HuPD1A-11 S61N VH G56A / VL) IgG4 S228P / Kappa
B9: Humanized 08A IgG4 Fab 100 S61N G56A (antibody, V domains shown)
VH: EVQLVQSGAEVKKPGASVKVSCKASGYTFTSYYLYWVRQAPGQGLEWIGGVNPSNAGTNFNEKFKSRVTLTVDTSISTAYMELSRLRSDDTAVYYCTRRLSHYDGGFDYWGQGTTVTVSS
VL: DIVMTQTPLSLSVTPGQPASISCRASKSVSTSGFSYLHWYLQKPGQPPQLLIFLSKYRSSGVPDRFSGSGSGTDFTLKISRVEAEDVGVYYCSQAYHLPLTFGQGTKLEIKR
notes: also called 25AVE

Tests used:
[1] = target: T1, recombinant human or cyno PD-1 (immobilized onto CM5 chip, Example 1) (human or cyno ( which was …, UniProt Q15116 25-167, limits assumed)); assay: SPR (Biacore T200), PD-1 immobilized on CM5 chip, Fab as analyte
T1 construct: also called antigen
T1 sequence (Q15116 25-167 limits assumed): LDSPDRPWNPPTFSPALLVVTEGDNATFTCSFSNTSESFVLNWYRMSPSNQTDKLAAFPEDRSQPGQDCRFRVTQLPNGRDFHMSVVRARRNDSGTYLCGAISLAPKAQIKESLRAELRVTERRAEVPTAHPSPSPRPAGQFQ
Procedure: Immobilization of recombinant human or cyno PD-1 onto CM5 chip: A CM5 sensor chip was activated in FC2 by 7-min. injection (10 μl/min.) of freshly prepared 1:1 50 mM NHS: 200 mM EDC. PD-1 at a concentration of 0.2 μg/ml in 10 mM sodium acetate buffer pH 5.0 was injected onto the activated chip at 5 μl/min. (HBS-EP running buffer: 10 mM HEPES, 150 mM NaCl, 3.4 mM EDTA, 0.005% surfactant P20, pH 7.4) for 120 seconds. The remaining active coupling sites were blocked with 7 min. injection of 1M ethanolamine at 10 μl/min.
Binding kinetics measurement: Various concentrations of the Fabs were injected with a flow rate of 30 μl/min for 180 seconds(s) during the association phase. The dissociation of bound antibody was monitored by flowing HBS-EP buffer over the chip surface for 600 seconds. At the end of each cycle, the sensor surfaces were regenerated by injecting regeneration buffer (10 mM glycine buffer with pH 1.7) for 180 seconds. After sensograms were corrected for signals from a reference flow, kinetics were calculated with BIACORE T 200 evaluation software ver.1.0 (Biacore, GE, USA).

[2] = target: T2, polyhistidine-tagged human PD-1 (hPD1-His, 98AFK) (human, UniProt Q15116 25-167, limits assumed); assay: SPR solution affinity; reference Humanized 08A IgG4 S61N (98AIO)
T2 construct: also called human PD1-His; Human PD-1-His
T2 sequence (Q15116 25-167 limits assumed): as above
Procedure: (§1) The titration series were incubated for 16-24 hours to reach equilibrium at room temperature. The unbound sites were measured using a BIAcore chip immobilized with antigen in a competition mode where SPR signal detected corresponded to unbound antibody.
(§2) The titration series following >16 hr. incubation were injected over the sensor chip immobilized with hPD1-His (above). Free, unbound antibodies concentrations were measured as proportional to RU after 120 seconds (for 500 pM mAb series) or 400 seconds (for 100 pM mAb series) of injection at 10 μL/min. After each cycle, surfaces were regenerated with a 30 second injection of 1:1 mixture of 3M MgCl₂ and pH 2.0 10 mM glycine at 30 μL/min.

[3] = target: T2, polyhistidine-tagged human PD-1 …; assay: SPR solution affinity (Biacore T200, competition mode, equilibrium titration)
Procedure: as §1, §2

[4] = target: T2, polyhistidine-tagged human PD-1 …; assay: SPR (Biacore T200), mAb captured on anti-Fc chip, hPD1-His as analyte
Procedure: (§3) A surface plasmon resonance (SPR)-based assay utilizing capture mode was used to determine the binding kinetics and affinities of anti-PD-1 antibodies against polyhistidine-tagged human PD-1 (hPD1-His, 98AFK). Following manufacture instructions, a series S sensor chip CM5 (GE Healthcare, BR100530) was activated using an amine-coupling kit (GE Healthcare, BR100050). Either human capture kit (anti-human Fc, 25 μg/mL, GE Healthcare, BR100839) or mouse capture kit (anti-mouse Fc, 30 μg/mL, GE Healthcare, BR100838) antibody diluted in the supplied pH 5.0, 10 mM sodium acetate buffer was immobilized onto the activated surface for 7 minutes. After immobilization, surfaces were deactivated with 1M ethanolamine/HCl (pH 8.5) for 7 minutes.
(§4) Binding kinetics were measured on a biacore T200 in HBS-EP+ (0.01 M HEPES pH 7.4, 0.15 M NaCl, 3 mM EDTA, 0.05% v/v Surfactant P20) running buffer at 25° C. Antibodies were captured either on mouse or human Fc capture surfaces at 10 μL/min flow rate. Antibodies were captured on flow cells 2, 3 and 4. Flow cell 1 was used as a reference with no antibody captured. A 6-point, 2-fold serial dilutions of the analyte 98AFK (hPD1-His), starting at 20 nM, were prepared in the running buffer (HBS-EP+). Two buffer blanks were included for double referencing. Titration series were injected for 3 minutes at 50 μl/min followed by 600 seconds of dissociation. After each cycle, surfaces were regenerated with a 30 second injection of 3M MgCl₂ at […] on the anti-human Fc chip or 180 seconds of 10 mM Glycine pH 1.7 at 10 μl/min on the anti-mouse Fc chip.
(§5) Sensorgram processing and data analysis were performed with Biacore T200 Evaluation Software Version 2.0.4 (GE Healthcare). […] Processed curves were globally fitted to a 1:1 binding model to determine the association rate constant, kₒₙ (M⁻¹s⁻¹, where “M” equals molar and “s” equals seconds) and the dissociation rate constant, koff (s⁻¹). These rate constants were used to calculate the equilibrium dissociation constant, KD (M)=koff/kₒₙ.

[5] = target: T2, polyhistidine-tagged human PD-1 …; assay: SPR (Biacore T200), mAb captured on anti-Fc chip; reference Mouse 08A
Procedure: as §3, §4, §5

Row | Binder | Kd [1] | KD (REF)/KD [2] | Kd [3] | Kd [4] | KD (REF)/KD [5]
1 | B1 | 0.015 nM |  |  |  | 
2 | B2 | 0.066 nM |  |  |  | 
3 | B3 | 0.014 nM |  |  |  | 
4 | B4 | 0.031 nM |  |  |  | 
5 | B5 |  | 1 | 0.033 nM | 0.054 nM | 4.4
6 | B6 |  | 1.7 | 0.019 nM | 0.079 nM | 3
7 | B7 |  | 0.6 | 0.056 nM | 0.1 nM | 2.4
8 | B8 |  | 1 | 0.033 nM | 0.057 nM | 4.2
9 | B9 |  | > 13 | < 0.0025 nM | 0.042 nM | 5.7
